Experimental data taken from patent publication US6531296.

Molecular target: T1, GST-RbC, Rb fusion protein encoding amino acids 780-928 (COOH-terminal domain only) (UniProt P06400)
T1 sequence (looked up): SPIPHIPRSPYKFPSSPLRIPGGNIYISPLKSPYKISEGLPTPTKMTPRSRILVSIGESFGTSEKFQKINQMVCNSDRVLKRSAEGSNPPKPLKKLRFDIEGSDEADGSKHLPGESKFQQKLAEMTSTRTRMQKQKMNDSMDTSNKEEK
Experiment: in vitro translated Rak on GST-RbC beads, SDS-PAGE and autoradiography (FIG. 5B, upper panel)

B1: Rak protein (p54^rak), full-length nuclear tyrosine kinase (enzyme)
chain: MSNICQRLWEYLEPYLPCLSTEADKSTVIENPGALCSPQSQRHGHYFVALFDYHAPTAEELSFRAGDKLQVLDTLHEGWWFARHLEKRRDGSSQQLQGYIPSNYVAEDRSLQAEAWFFGAIRRSDAEKQLLYSENKTGSFLIRESESQKGEFSLSVLDGAVVKHYRIKRLDEGGFFLTRRRIFSTLNEFVSHYTKTSDGLCVKLGKPCLKIQVPAPFDLSYKTVDQWEIDRNSIQLLKRLGSGQFGEVWEGLWNNTTPVAVKTLKPGSMDPNDFLREAQIMKNLRHPKLIQLYAVCTLEDPIYIITELMRHGSLQEYLQNDTGSKIHLTQQVDMAAQVASGMAYLESRNYIHRDLAARNVLVGEHNIYKVADFGLARVFKVDNEDIYESRHEIKLPVKWTAPEAIRSNKFSIKSDVWSFGILLYEIITYGKMPYSGMTGAQVIQMLAQNYRLPQPSNCPQQFYNIMLECWNAEPKERPTFETLRWKLEDYFETDSSYSDANNFIR
fold less binding than to the RbABC fusion protein: 5 fold less
